T1: IL-13Rα1
T1 construct: also called IL13Ra1
T1 chain: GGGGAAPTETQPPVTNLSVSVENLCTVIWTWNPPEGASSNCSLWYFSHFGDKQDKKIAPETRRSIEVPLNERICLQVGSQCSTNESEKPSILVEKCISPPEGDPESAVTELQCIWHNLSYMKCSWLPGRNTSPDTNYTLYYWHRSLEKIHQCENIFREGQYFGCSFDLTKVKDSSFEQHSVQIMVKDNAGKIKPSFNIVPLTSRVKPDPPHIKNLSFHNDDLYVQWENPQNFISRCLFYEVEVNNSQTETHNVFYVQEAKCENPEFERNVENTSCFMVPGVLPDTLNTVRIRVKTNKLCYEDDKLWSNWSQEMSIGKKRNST

T2: IL-13Rα2
T2 construct: also called IL13Ra2; CD213A2
T2 chain: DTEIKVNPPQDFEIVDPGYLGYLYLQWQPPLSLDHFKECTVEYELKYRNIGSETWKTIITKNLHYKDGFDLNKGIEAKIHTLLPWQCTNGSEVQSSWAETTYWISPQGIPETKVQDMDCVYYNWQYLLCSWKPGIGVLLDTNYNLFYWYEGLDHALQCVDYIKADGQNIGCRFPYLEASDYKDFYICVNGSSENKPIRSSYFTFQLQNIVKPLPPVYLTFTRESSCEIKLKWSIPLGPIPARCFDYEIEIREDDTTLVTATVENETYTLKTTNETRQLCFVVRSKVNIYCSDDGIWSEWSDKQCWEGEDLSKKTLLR


How the values were obtained:
[1] = target: T1, IL-13Rα1; assay: SPR, kinetic (column K1)
[2] = target: T1, IL-13Rα1; assay: SPR, kinetic (column K-1)
[3] = target: T1, IL-13Rα1; assay: SPR, column KD (eq)
[4] = target: T2, IL-13Rα2; assay: SPR, kinetic (column K1)
[5] = target: T2, IL-13Rα2; assay: SPR, kinetic (column K-1)

kon [1] [M⁻¹ s⁻¹] | koff [2] [s⁻¹] | Kd [3] [nM] | kon [4] [M⁻¹ s⁻¹] | koff [5] [s⁻¹] | Binder
2.8e+06 | 0.0082 |  |  |  | A5 (ligand, grouped under 'IL-13Rα1 specific'; also called IL-13 variant A5) cytokine: PGPVPPSTALIELIEELINITQNQKAPLCNGSMVWSINLTAGMYCAALESLINVSGCSAIEKTQRMLSGFCPHKVSAGQFSSLHVKGSKIEVAQFVKDLLHHLRALMREGQFN
1.36e+06 | 0.024 |  |  |  | B4 (ligand, grouped under 'IL-13Rα1 specific'; also called IL-13 variant B4) cytokine: PGPVPPSTALSELIEELINITQNQKAPLCNGSMVWSINLTAGMYCAALESLINVSGCSAIEKTQRMLSGFCPHKVSAGQFSSLHVKGSMIEVAQFVKDLLYHLRTLFREGQFN
1.64e+06 | 0.0033 |  |  |  | A8 (ligand, grouped under 'IL-13Rα1 specific'; also called IL-13 variant A8) cytokine: PGPVPPSTAIRELIEELINITQNQKAPLCNGSMVWSINLTAGMYCAALESLINVSGCSAIEKTQRMLSGFCPHKVSAGQFSSLHVRSSRIEVAQFVKDLLHHLRTLFREGQFN
 |  | 1600 | 6.41e+06 | 9.18e-07 | C11 (ligand, grouped under 'IL-13Rα2 specific'; also called IL-13 variant C11) cytokine: PGPVPPSTAHRELIEELVNITQNQKAPLCNGSMVWSINLTAGMYCAALESLINVSGCSAIEKTQRMLSGFCPHKVSAGQFSSLHVTGRKIEVAQFVKDLLLHLKKLFKEGQFN
1.77e+06 | 0.0033 |  |  |  | A6 (ligand, grouped under 'IL-13Rα1 specific'; also called IL-13 variant A6) cytokine: PGPVPPSTAIRELIEELLNITQNQKAPLCNGSMVWSINLTAGMYCAALESLINVSGCSAIEKTQRMLSGFCPHKVSAGQFSSLHVMKSKIEVAQFVKDLLHHLRALFREGQFN
1.4e+06 | 0.0082 |  |  |  | B6 (ligand, grouped under 'IL-13Rα1 specific'; also called IL-13 variant B6) cytokine: PGPVPPSTATRELIEELINITQNQKAPLCNGSMVWSINLTAGMYCAALESLINVSGCSAIEKTQRMLSGFCPHKVSAGQFSSLHVRGSKIEVAQFVKDLLYHLRTLFREGQFN
 |  |  | 1.77e+07 | 5.37e-05 | D7 (ligand, grouped under 'IL-13Rα2 specific'; also called IL-13 variant D7) cytokine: PGPVPPSTAARELIEELFNITQNQKAPLCNGSMVWSINLTAGMYCAALESLINVSGCSAIEKTQRMLSGFCPHKVSAGQFSSLHVKKTRIEVAQFVKDLLIHLRKLFKEGQFN
1.64e+07 | 0.0013 |  |  |  | A11 (ligand, Grouped under 'IL-13Rα1 specific'; also called IL-13 variant A11) cytokine: PGPVPPSTAVRELIEELINITQNQKAPLCNGSMVWSINLTAGMYCAALESLINVSGCSAIEKTQRMLSGFCPHKVSAGQFSSLHVRSSKIEVAQFVKDLLFHLRTLFREGQFN
 |  |  | 1.94e+06 | 0.000764 | C4 (ligand, grouped under 'IL-13Rα2 specific'; also called IL-13 variant C4) cytokine: PGPVPPSTAVRELIEELVNITQNQKAPLCNGSMVWSINLTAGMYCAALESLINVSGCSAIEKTQRMLSGFCPHKVSAGQFSSLHVRDTRIEVAQFVKDLLNHLKELFTEGQFN
6.3e+06 | 0.0017 |  |  |  | B2 (ligand, grouped under 'IL-13Rα1 specific'; also called IL-13 variant B2) cytokine: PGPVPPSTALRELIEELINITQNQKAPLCNGSMVWSINLTAGMYCAALESLINVSGCSAIEKTQRMLSGFCPHKVSAGQFSSLHVTGSKIEVAQFVKDLLYHLRALFREGQFN
2.9e+06 | 0.0034 |  |  |  | A7 (ligand, grouped under 'IL-13Rα1 specific'; also called IL-13 variant A7) cytokine: PGPVPPSTAIRELIEELINITQNQKAPLCNGSMVWSINLTAGMYCAALESLINVSGCSAIEKTQRMLSGFCPHKVSAGQFSSLHVRGSKIEVAQFVKDLLHHLRALFREGQFN

From US20220347268A1 (MEDICENNA THERAPEUTICS, published 2022)
